Changes are numbered by the printed parent chain. Numbers in names are those of the source. Some results are limits rather than exact numbers.

Substrate in series [1]: Nc1ccn([C@H]2C[C@H](O)[C@@H](COP(=O)(O)O)O2)c(=O)n1
Briefly: Kinetic parameters of PDT variants with deoxycytidine 5'-mono, -di and -triphosphate as donors and adenine as acceptor. As to conditions: 37.0 °C; for Km: adenine as acceptor, fixed. In kind it is biochemical, Lactobacillus leichmannii. The method, then: (§1) The standard assay (“first protocol for enzyme assay”) for the different NDTs consisted of 5-15 μg of NDT in 50 mM MES buffer pH 6.0, dNxP (dNMP, or dNDP or dNTP) 3 mM and a base 1 mM in a total volume of 50 μL. Assays were incubated for 60 min at 37° C. The products of the reactions were analyzed each 7 min by Rapid resolution high performance liquid chromatography using a reverse-phase column (ZORBAX Eclipse XDB-C18 2.1*50 mm 1.8 μM) with a flow rate of 0.25 ml/min and a linear gradient of 1-12% CH3CN (2-25% CH3CN or 1-90% CH3CN) in 20 mM triethylammonium acetate, pH 7.5, buffer for 7 min. The low resolution mass spectra of the newly synthesized deoxyribonucleotides were obtained on an Agilent 1200 series LC/MS 6120 quadrupole system using an atmospheric electrospray ionization system.
This hypothesis was confirmed by monitoring the specific activity, in the presence of dCDP or dCTP as donor and adenine as acceptor (see table 2 above). The kinetic parameters were determined for the best variants with dCMP, dCDP and dCTP as substrates, at a concentration of A being fixed (see table 3 below).

Series [2] can be described thus: Catalytic activity of PDTT2 to PDTT7, dATP formed (HPLC). As to conditions: dCTP + A ⇄ dATP + C; 2 mM dCTP, 1 mM Adenine, 37° C., MES 50 mM pH6.0. In kind it is biochemical. The method, then: In specific cases, an alternative protocol was used to perform the enzyme assay. In this second protocol, the dNxP (dNMP, or dNDP or dNTP) concentration was of only 2 mM, instead of 3 mM. All of the other conditions were identical to those of the first protocol.
The catalytic activity of the mutant enzymes PDTT2, PDTT3, PDTT3b, PDTT4, PDTT5, PDTT6, PDTT7 has been compared. Briefly, a sufficient amount of enzyme mutant necessary to obtain a linear reaction over a period of one hour at 37° C. has been mixed in 2 mM dCTP and 1 mM Adenine in a final volume of 50 μL of MES buffer 50 mM pH6.0. Assays were incubated for 60 min at 37° C. The products of the reactions were analyzed each 7 min by Rapid resolution high performance liquid chromatography using a reverse-phase column (ZORBAX Eclipse XDB-C18 2.1*50 mm […]) with a flow rate of 0.25 ml/min and a linear gradient of 1-12% CH3CN (2-25% CH3CN or 1-90% CH3CN) in 20 mM triethylammonium acetate, pH 7.5, buffer for 7 min.

Series [3] in a line: Spectrophotometric assay coupled to xanthine oxidase (2,8-dihydroxyadenine at 301 nm). In kind it is biochemical. As to conditions: dATP + C ⇄ dCTP + A; 1 mM cytosine, 50 mM MES pH6.0, 37° C. How it is done:
(§2) Further, the cinetic parameters of these mutant enzymes were analysed, using a specific spectrophotometric assay. Briefly, the assay consists in measuring the formation of the final product (2,8 dihydroxyadenine) of the reaction:
(§3) Briefly, the assay was performed using the coupling of two enzymes: the variant (PDTT2, PDTT4, PDTT5, PDTT6, or PDTT7) to be tested and xanthine oxidase (obtained from Roche). The reaction mixture contained varying concentrations of dATP, 1 mM cytosine in a 50 mM MES buffer pH6.0 at 37° C. The reaction was initiated by adding 30 units of the purified variant to be tested and xanthine oxidase (Roche). The released adenine was then oxidized in 2,8-dihydroxyadenine which absorbs at 301 nm. The formation (i.e. concentration) of 2,8 dihydroxyadenine was measured by spectrophotometry.

Substrate in series [4]: Nc1ncnc2c1ncn2[C@H]1C[C@H](O)[C@@H](COP(=O)(O)OP(=O)(O)OP(=O)(O)O)O1
Briefly: Spectrophotometric assay coupled to xanthine oxidase, dATP + C ⇄ dCTP + A. As to conditions: 50 mM MES pH6.0, 37° C., pH 6.0. In kind it is biochemical, Lactobacillus leichmannii. How it is done:
as §2, §3

The nature of series [5]: Standard enzyme assay (HPLC): specific activities of PDT variants with natural purines and pyrimidines. In kind it is biochemical. The settings on record: donor 3 mM, acceptor 1 mM. The method, then: as §1
Unless specifically mentioned, the results presented hereafter have been obtained by using the first protocol for performing the enzyme assay.

Series [6] can be described thus: In vitro synthesis of deoxynucleotide analogues: specific activities. In kind it is biochemical. The method, then:
as §1
The donor concentration was 3 mM and the acceptor 1 mM except for dCTP 2 mM 5-BrU 1 mM and dAMP 2 mM 5-FU 1 mM. Activities are expressed in nanomoles of deoxynucleotides synthesized per min per mg of protein.

B1: Lactobacillus leichmannii nucleoside deoxyribosyltransferase (NDT, SEQ ID NO:1) variant PDTT1, R13 G92 T93 S123 K157 (F13R/D92G/V93T/N123S/Y157K), SEQ ID NO:9 … (protein)
chain: MPKKTIYFGAGWRTDRQNKAYKEAMEALKENPTIDLENSYVPLDNQYKGIRVDEHPEYLHDKVWATATYNNDLNGIKTNDIMLGVYIPDEEGTGLGMELGYALSQGKYVLLVIPDEDYGKPISLMSWGVSDNVIKMSQLKDFNFNKPRFDFYEGAVK
notes: homohexamer (108 kDa)
B1: the kcat (commonly the number of substrate molecules converted per active site and unit of time at saturation) in series [1] (other: PDTT1, first line, adenine acceptor, molecular mass of 108 kDa) stood at 0.46 s⁻¹. For the same molecule, the Km (usually the substrate concentration at which the rate is half of its maximum) in series [1] (other: PDTT1, first line) came out at 4100 µM; in series [1] (other: PDTT1, second line of the table), 8900 µM; in series [1] (other: PDTT1, third line of the table), 5500 µM.

B2: PDTT7: PDTT3b mutant with Arginine at position 157, SEQ ID NO:42 (protein)
chain: B1 chain with E91Q, T93G, K157R
modifications: amino acid sequence of PDTT7 (G92/S123/R13/G93/R157/Q91)
As to B2, the “Catalytic activity (nmol of dATP formed/min/mg of enzyme protein)” value in series [2] was 17.9 nmol of dATP formed/min/mg of enzyme protein. Besides, in series [3], the Km came to 2600 µM and the kcat stood at 10 s⁻¹.

B3: Lactobacillus leichmannii nucleoside deoxyribosyltransferase (NDT, SEQ ID NO:1) variant PDTT4, R13 Q91 G92 S93 S123 K157 (F13R/E91Q/D92G/V93S/N123S/Y157K), SEQ … (protein)
chain: B1 chain with E91Q, T93S
notes: xanthine oxidase is coupling enzyme only
For B3, in series [4] (other: PDTT4, 1 mM cytosine), the Km is 2300 µM, the kcat worked out at 8.8 s⁻¹ and the kcat/Km (usually the turnover number divided by the Michaelis constant) came to 3800 M⁻¹ s⁻¹.

B4: PDTT6: PDTT4 mutant with Arginine at position 157, SEQ ID NO:43 (protein)
chain: B1 chain with E91Q, T93S, K157R
modifications: amino acid sequence of PDTT6 (G92/S123/R13/S93/R157/Q91)
On to B4, for which the “Catalytic activity (nmol of dATP formed/min/mg of enzyme protein)” value in series [2] is on record as 18.6 nmol of dATP formed/min/mg of enzyme protein. Besides, in series [3], the Km worked out at 500 µM and the kcat worked out at 10 s⁻¹.

B5: Lactobacillus leichmannii nucleoside deoxyribosyltransferase (NDT, SEQ ID NO:1) variant PDTT5, R13 Q91 G92 P93 S123 R157 (F13R/E91Q/D92G/V93P/N123S/Y157R), SEQ … (protein)
chain: B1 chain with E91Q, T93P, K157R
notes: as for B3
B5: in series [4] (other: PDTT5, 1 mM cytosine), the Michaelis constant (Km) came out at 200 µM, the catalytic constant (kcat) was 8.78 s⁻¹ and the kcat/Km was 42800 M⁻¹ s⁻¹.

B6: PDTT2: NDT mutant R13 Q91 G92 T93 S123, SEQ ID NO:10 (protein)
chain: B1 chain with E91Q, K157Y
modifications: PDTT2 enzyme mutant
As to B6, the Specific activity was 8 nanomoles of deoxynucleotides synthesized per min per mg of protein in series [5] (dADP + C ⇄ dCDP + A); <0.1 nanomoles of deoxynucleotides synthesized per min per mg of protein in series [5] (dADP + Hx ⇄ dIDP + A); 31 nanomoles of deoxynucleotides synthesized per min per mg of protein in series [5] (dAMP + C ⇄ dCMP + A); <0.1 nanomoles of deoxynucleotides synthesized per min per mg of protein in series [5] (dAMP + Hx ⇄ dIMP + A); 15 nanomoles of deoxynucleotides synthesized per min per mg of protein in series [5] (dATP + C ⇄ dCTP + A); <0.1 nanomoles of deoxynucleotides synthesized per min per mg of protein in series [5] (dATP + Hx ⇄ dITP + A). The Specific activity in series [5] (dCDP + A ⇄ dADP + C) is reported as 66 nanomoles of deoxynucleotides synthesized per min per mg of protein; in series [5] (dCDP + U ⇄ dUDP + C (U used as acceptor base instead of T)), 8 nanomoles of deoxynucleotides synthesized per min per mg of protein; in series [5] (dCMP + A ⇄ dAMP + C) it was 286 nanomoles of deoxynucleotides synthesized per min per mg of protein; in series [5] (dCMP + T ⇄ dTMP + C) it was 1.1 nanomoles of deoxynucleotides synthesized per min per mg of protein; in series [5] (dCTP + A ⇄ dATP + C), 51 nanomoles of deoxynucleotides synthesized per min per mg of protein; in series [5] (dCTP + T ⇄ dTTP + C) it was 1.4 nanomoles of deoxynucleotides synthesized per min per mg of protein. The Specific activity in series [5] (dGDP + A ⇄ dADP + G) is on record as 33 nanomoles of deoxynucleotides synthesized per min per mg of protein; in series [5] (dGMP + A ⇄ dAMP + G), 50 nanomoles of deoxynucleotides synthesized per min per mg of protein; in series [5] (dGTP + A ⇄ dATP + G) it was 36 nanomoles of deoxynucleotides synthesized per min per mg of protein; in series [6] (dAMP + 5-FU → A + 5-F-dUMP, dAMP 2 mM 5-FU 1 mM), 48.4 nanomoles of deoxynucleotides synthesized per min per mg of protein; in series [6] (dCMP + 2,6-D → C + 2,6-DMP, donor 3 mM, acceptor 1 mM), 95.8 nanomoles of deoxynucleotides synthesized per min per mg of protein; in series [6] (dCMP + 2,6-chloropurine → C + 2,6-dichloropurine 2′-deoxyribose 5′-monophosphate, donor 3 mM, acceptor 1 mM) it was 37 nanomoles of deoxynucleotides synthesized per min per mg of protein. Besides, the Specific activity is recorded as 10.7 nanomoles of deoxynucleotides synthesized per min per mg of protein in series [6] (dCMP + 5-BrU → C + 5-Br-dUMP, donor 3 mM, acceptor 1 mM); 75 nanomoles of deoxynucleotides synthesized per min per mg of protein in series [6] (dCMP + 6-chloropurine → C + 6-chloropurine 2′-deoxyribose 5′-monophosphate, donor 3 mM, acceptor 1 mM); 17 nanomoles of deoxynucleotides synthesized per min per mg of protein in series [6] (dCTP + 2,6-D → C + 2,6-DTP, donor 3 mM, acceptor 1 mM); 14 nanomoles of deoxynucleotides synthesized per min per mg of protein in series [6] (dCTP + 2,6-chloropurine → C + 2,6-dichloropurine 2′-deoxyribose 5′-triphosphate, donor 3 mM, acceptor 1 mM); 12 nanomoles of deoxynucleotides synthesized per min per mg of protein in series [6] (dCTP + 5-BrU → C +5-Br-dUTP, dCTP 2 mM 5-BrU 1 mM); 39.4 nanomoles of deoxynucleotides synthesized per min per mg of protein in series [6] (dCTP + 5-FU → C + 5-F-dUTP, donor 3 mM, acceptor 1 mM). Moreover, the Specific activity in series [6] (dCTP + 6-chloropurine → C + 6-chloropurine 2′-deoxyribose 5′-triphosphate, donor 3 mM, acceptor 1 mM) is given as 15 nanomoles of deoxynucleotides synthesized per min per mg of protein; in series [6] (dCTPαS + A → C + dATPαS, donor 3 mM, acceptor 1 mM) it was 54 nanomoles of deoxynucleotides synthesized per min per mg of protein. In series [2], the “Catalytic activity (nmol of dATP formed/min/mg of enzyme protein)” value is recorded as 9.6 nmol of dATP formed/min/mg of enzyme protein.
